How the values were obtained:
Assay in all cases: SPR
[1] = target: SARS-CoV-2 Omicron BA.2 spike protein trimer (SARS-CoV-2) (UniProt P0DTC2)
[2] = target: SARS-CoV-2 Omicron BA.5 spike protein trimer (SARS-CoV-2) (UniProt P0DTC2)
[3] = target: SARS-CoV-2 Omicron BA2.75 spike protein trimer (SARS-CoV-2) (UniProt P0DTC2)
[4] = target: SARS-CoV-2 Omicron BA4.6 spike protein trimer (SARS-CoV-2) (UniProt P0DTC2)
[5] = target: SARS-CoV-2 Omicron BQ.1.1 spike protein trimer (SARS-CoV-2) (UniProt P0DTC2)
[6] = target: SARS-CoV-2 Omicron XBB.1 spike protein trimer (SARS-CoV-2) (UniProt P0DTC2)

In the case of “LiVE-Longer YTE chimera (ACE-2 LVE/STR-YTE fusion protein) (from UniProt Q9BYF1 18-740) (Fc fusion)”, the Kd [1] is reported as 0.078 pM, the Kd [2] is reported as 5.43 pM and the Kd [3] is reported as 0.133 pM. The Kd [4] was 0.845 nM, the Kd [5] was 1.81 pM and the Kd [6] was 0.215 nM.
